From paper PMC6718402, “The structural basis of lipid scrambling and inactivation in the endoplasmic reticulum scramblase TMEM16K” (Nature Communications, 2019)

Biological target: the molecule itself
Assay: crystal structure; TMEM16K purified in UDM/CHS, crystallised in lipidic cubic phase (MAG 7.9; 0.1 M MES pH 6.0, 0.1 M NaCl, 0.1 M CaCl2, 30% PEG300) and by sitting drop vapour diffusion (0.1 M HEPES pH 7.0, 0.1 M calcium acetate, 22% PEG400); open groove conformation

B1: human TMEM16K (anoctamin-10), full length (natural protein, UniProt Q9NW15-1 1-660, looked up)
chain: MKVTLSALDTSESSFTPLVVIELAQDVKEETKEWLKNRIIAKKKDGGAQLLFRPLLNKYEQETLENQNLYLVGASKIRMLLGAEAVGLVKECNDNTMRAFTYRTRQNFKGFDDNNDDFLTMAECQFIIKHELENLRAKDEKMIPGYPQAKLYPGKSLLRRLLTSGIVIQVFPLHDSEALKKLEDTWYTRFALKYQPIDSIRGYFGETIALYFGFLEYFTFALIPMAVIGLPYYLFVWEDYDKYVIFASFNLIWSTVILELWKRGCANMTYRWGTLLMKRKFEEPRPGFHGVLGINSITGKEEPLYPSYKRQLRIYLVSLPFVCLCLYFSLYVMMIYFDMEVWALGLHENSGSEWTSVLLYVPSIIYAIVIEIMNRLYRYAAEFLTSWENHRLESAYQNHLILKVLVFNFLNCFASLFYIAFVLKDMKLLRQSLATLLITSQILNQIMESFLPYWLQRKHGVRVKRKVQALKADIDATLYEQVILEKEMGTYLGTFDDYLELFLQFGYVSLFSCVYPLAAAFAVLNNFTEVNSDALKMCRVFKRPFSEPSANIGVWQLAFETMSVISVVTNCALIGMSPQVNAVFPESKADLILIVVAVEHALLALKFILAFAIPDKPRHIQMKLARLEFESLEALKQQQMKLVTENLKEEPMESGKEKAT
notes: The tag was removed with TEV protease before size exclusion, so residues of the TEV site may remain at the C-terminus; Modelled residues: Ser14-Gln639 (LCP crystal), Ser13-Lys641 (2 mM Ca2+ cryo-EM); the purification is described as similar to that for crystallisation (Sf9); also called hTMEM16K; ANO10; source: Sf9 cells (baculovirus), purified in UDM/CHS (Talon resin, TEV cleavage, Superose 6 …)
stoichiometry N: 2
